# Test results: paper PMC10694151, “Regulation of the cell division hydrolase RipC by the FtsEX system in Mycobacterium tuberculosis” (Nature Communications, 2023)
# B1: FtsE (Rv3102c) of Mycobacterium tuberculosis (natural protein)
# chain: MMITLDHVTKQYKSSARPALDDINVKIDKGEFVFLIGPSGSGKSTFMRLLLAAETPTSGDVRVSKFHVNKLRGRHVPKLRQVIGCVFQDFRLLQQKTVYDNVAFALEVIGKRTDAINRVVPEVLETVGLSGKANRLPDELSGGEQQRVAIARAFVNRPLVLLADEPTGNLDPETSRDIMDLLERINRTGTTVLMATHDHHIVDSMRQRVVELSLGRLVRDEQRGVYGMDR
# notes: also called MtbFtsE; NBD
# B2: FtsX (Rv3101c) of Mycobacterium tuberculosis (natural protein)
# chain: MRFGFLLNEVLTGFRRNVTMTIAMILTTAISVGLFGGGMLVVRLADSSRAIYLDRVESQVFLTEDVSANDSSCDTTACKALREKIETRSDVKAVRFLNRQQAYDDAIRKFPQFKDVAGKDSFPASFIVKLENPEQHKDFDTAMKGQPGVLDVLNQKELIDRLFAVLDGLSNAAFAVALVQAIGAILLIANMVQVAAYTRRTEIGIMRLVGASRWYTQLPFLVEAMLAATMGVGIAVAGLMVVRALFLENALNQFYQANLIAKVDYADILFITPWLLLLGVAMSGLTAYLTLRLYVRR
# notes: also called MtbFtsX
# Columns and labels:
# [1] = target: T1, MtbFtsEX/RipC (Mycobacterium tuberculosis, UniProt O05779)
# T1 construct: gene ftsE
# [2] = target: B2; assay: cryo-EM structure; FtsEX or FtsEX-RipC in peptidiscs, 3 mg/ml, ATP-free; details: both partners purified
# [3] = target: the molecule itself; assay: as above
# T1 sequence (P9WHU3 34-385, one chain of several, further chain): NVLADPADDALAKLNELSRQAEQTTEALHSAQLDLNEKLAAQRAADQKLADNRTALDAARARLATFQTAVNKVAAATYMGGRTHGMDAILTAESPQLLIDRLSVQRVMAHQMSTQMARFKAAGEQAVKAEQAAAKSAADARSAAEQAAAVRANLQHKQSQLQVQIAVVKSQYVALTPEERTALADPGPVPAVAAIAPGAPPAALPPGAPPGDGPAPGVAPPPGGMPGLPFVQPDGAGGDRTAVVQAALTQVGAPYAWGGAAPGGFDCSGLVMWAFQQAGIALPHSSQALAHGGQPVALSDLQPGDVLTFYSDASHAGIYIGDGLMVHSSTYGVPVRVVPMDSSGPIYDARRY
molecule,measurement,setting,value
Nc1ncnc2c1ncn2[C@@H]1O[C@H](COP(=O)(O)OP(=O)(O)O)[C@@H](O)[C@H]1O [ADP],"cryo-EM structure, 5.7 Å, polyalanine model",[1],with EM density compatible with an ADP molecule
B1,binding result,[2],binds
B2,stoichiometry N,[3],2
